In publication PMC4596477, “Interaction of Myosin Phosphatase Target Subunit (MYPT1) with Myosin Phosphatase-RhoA Interacting Protein (MRIP): A Role of Glutamic Acids in the Interaction” (PLoS ONE, 2015):

T1: MRIP^724-878 (Homo sapiens, UniProt Q6WCQ1)
T1 construct: MRIP^724-878 (residues 724–878; CC2-CC4); made in house; host or cells: Escherichia coli BL21 (DE3)
T1 sequence (Q6WCQ1 725-879): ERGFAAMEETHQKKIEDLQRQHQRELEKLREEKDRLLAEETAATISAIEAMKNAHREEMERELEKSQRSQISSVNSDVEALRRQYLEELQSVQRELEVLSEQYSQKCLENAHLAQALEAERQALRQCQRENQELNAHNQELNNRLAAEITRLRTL

T2: MRIP^724-878 (myosin phosphatase-RhoA interacting protein, residues 724–878; CC2-CC4) (UniProt Q6WCQ1 724-878)
T2 construct: Tight homodimer in solution by AUC; the forward primer puts an NdeI ATG before the codons GAGCGAGGGTTTGCAGCAATG; source: E. coli BL21 (DE3), purified (chitin beads, C8 reversed-phase HPLC)
T2 sequence (looked up): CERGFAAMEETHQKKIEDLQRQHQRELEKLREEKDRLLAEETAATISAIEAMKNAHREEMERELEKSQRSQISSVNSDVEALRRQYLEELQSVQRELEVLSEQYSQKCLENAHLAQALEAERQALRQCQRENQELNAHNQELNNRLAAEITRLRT

B1: CCLR, MYPT1 peptide (residues 924–1030) containing a putative coiled coil domain (CC) and the leucine repeat region (LR) (domain or fragment, UniProt O14974 924-1030, looked up)
chain: LEKDDSTDFKKLYEQILAENEKLKAQLHDTNMELTDLKLQLEKATQRQERFADRSLLEMEKRERRALERRISEMEEELKMLPDLKADNQRLKDENGALIRVISKLSK
notes: myosin phosphatase target subunit (MYPT1); also called C-terminal region of MYPT1; source: E. coli BL21 (DE3), purified (chitin beads, C8 reversed-phase HPLC)
B2: MRIP^724-878: recombinant tag-free MRIP peptide, residues 724–878; CC2-CC4 (protein)
chain: T2 sequence (looked up)
modifications: left off: chitin-binding domain (IMPACT kit, pTYB12), N-terminal, cleaved
notes: recombinant tag-free MRIP peptide, residues 724–878; CC2-CC4

How the values were obtained:
MRIP^724-878 = molecular target: T1, MRIP^724-878; assay: SPR, MYPT1 peptides as analytes over immobilized MRIP^724-878; format: binding; conditions: 25°C, pH 7.4, CCLR 167–1 μM, CC 318–10 μM, LR 569–5 μM
Description: To corroborate the results from AUC studies, SPR was employed. […] Equilibrium K d values were obtained by nonlinear curve fitting of reference-corrected curves using the steady-state affinity fitting model in BIAevaluation version 4–1.
(§1) Analytes CCLR, CC, LR: Interactions between analytes, CCLR (167–1 μM), CC (318–10 μM), and LR (569–5 μM) with immobilized ligand, MRIP^724-878 (1800 RU) after correction for nonspecific binding using G-actin (2230 RU). Shown is a representative out of 9 experiments for CCLR and 8 for LR in each, duplicates or triplicates. Insets show fittings of steady-state affinity. Ligand LR: Interaction of analyte, MRIP^724-878 (85.6–0.7 μM) with immobilized ligand, LR (244.8 RU) after correction for nonspecific binding using a nebulin-derived peptide (600 RU). Shown is a representative out of 6 experiments.
(§2) Binding analyses of SPR were conducted on a Biacore 3000 (GE Healthcare) at 25°C. Sensor chips and reagents for immobilization (1-ethyl-3-(3-dimethylaminopropyl) carbodiimide, N-hydroxyl-succinimide, and ethanolamine) were purchased from GE Healthcare. Peptides were immobilized onto a CM5 sensor chip at 232–5841 resonance units (RU) using amine coupling. Binding studies were done using two-fold serial dilutions of the peptides in 50 mM potassium phosphate buffer (pH 7.4) containing 100 mM KCl. […]

[1] = ref [14]; cited from earlier work
Description: The concentration ranges of the MRIP peptides in the mixtures overlap with those of the MRIP peptides by themselves (Fig 2). Thus, the greater s* values of the MRIP/MYPT1 mixtures than those of the individual MRIP peptides indicate that MRIP^545-878 monomer, MRIP^724-878 dimer, and the mixture of monomer and dimer of MRIP^724-837 bind to CCLR. […] To obtain the binding stoichiometry, AUC was performed using MRIP^724-878/CCLR mixtures at different ratios of the two peptides. MRIP^724-878 was chosen because the AUC stu ... || To obtain the binding stoichiometry, a series of sedimentation equilibrium experiments was performed. MRIP^724-878 was chosen due to its being a single species. Owing to the absence of aromatic residues, LR was employed. AUC was conducted using MRIP^724-878 alone, LR alone, the 1:1 mixture of MRIP^724-878/LR, and the 1:3 mixture of MRIP^724-878/LR. Sedimentation data were collected both at 280 nm to detect only MRIP^724-878 and at 220 nm to detect both.

[2] = molecular target: T2, MRIP^724-878 (myosin phosphatase-RhoA …); assay: SPR; Biacore 3000, 25°C; MRIP^724-878 immobilised (1800 RU) by amine coupling on CM5, analytes CCLR (167–1 μM), CC (318–10 μM), LR (569–5 μM); reference surface G-actin; 50 mM potassium phosphate pH 7.4, 100 mM KCl; steady-state affinity fit; conditions: both partners purified
[3] = AUC sedimentation velocity of MRIP peptides alone (molar mass, sedimentation coefficient, oligomeric state); format: physicochemical
Text: The RMSD of the fit was 0.008.
(§3) The cDNA fragment encoding MRIP peptides were amplified using a full-length MRIP cDNA as a template with the following primer pairs: MRIP^545-878, 5’-[…]/5’[…]; MRIP^724-878, 5’-[…]/5’-[…]; MRIP^724-837, 5’-[…]/5’-[…]. The PCR products were ligated into pCR2.1-TOPO using the TA cloning system and sequenced in both directions. The IMPACT™ (Intein Mediated Purification with an Affinity Chitin-binding Tag) Kit (New England BioLabs) was used to express peptides in bacteria to obtain tag-free peptides. The PCR amplicon encoding MRIP peptides were fused in frame to the chitin binding domain of pTYB12 vector utilizing the NdeI/EcoRI restriction sites. The expression vectors for the MYPT1 peptides, CCLR (residues 924–1030), CC (residues 924–990), and LR (residues 991–1030) were constructed as described: In the reference literature, CCLR and LR were named CCLZ and LZ, respectively. Recombinant peptides were produced in Escherichia coli strain BL21 (DE3) and purified using chitin beads according to the manufacturer's protocol. For further purification, the eluent from chitin beads was loaded on a Vydac C8 reversed phase column and subjected to HPLC using an acetonitrile gradient. Purity and identity of the peptides were confirmed by polyacrylamide gel electrophoresis (PAGE) and mass spectrometry. For the mutagenesis study of LR, the wild-type and mutant LR peptides were synthesized, purified by reverse-phase HPLC, and lyophilized to dryness at the peptide core in Boston Biomedical Research Institute.
Sedimentation velocity experiments were done on a Beckman Instruments Optima XL-I analytical ultracentrifuge equipped with Rayleigh optics. The cells were equipped with sapphire windows and 12 mm charcoal-filled Epon centerpieces. Apparent sedimentation coefficient distribution patterns were computed by the time derivative method. Peptides were dialyzed against 50 mM potassium phosphate buffer (pH 7.4) containing 100 mM KCl, and 1 mM DTT at 4°C overnight and then subjected to AUC at 50,000 rpm and 20°C. Molar mass was computed from sedimentation velocity profiles using SedAnal, which uses a nonlinear least-squares curve fitting algorithm to fit data to solutions of the differential equation (the Lamm equation) describing sedimentation. Fits were performed on time difference data to remove the time-independent systematic baseline components. Values of s and D produced by the fitting procedure were substituted into the Svedberg equation to obtain the molar mass of the protein, M: M=RT/(1−ν¯ρ)s20,wo/D20,wo where ρ is the density of the buffer and ν¯ is the partial specific volume of the protein. Sednterp was employed to compute values of ρ and ν¯ from the amino acid sequence.

CCLR = assay: AUC interaction of MRIP peptides with MYPT1 peptide CCLR (residues 924–1030); format: binding; conditions: equimolar mixtures (MRIP^545-878 14 μM each; MRIP^724-878 30 μM each; MRIP^724-837 67 μM each) and 3-, 9-fold dilutions, pH 7.4, 100 mM KCl, 20°C
Description: AUC was performed to examine the interactions of MRIP^545-878, MRIP^724-878, or MRIP^724-837 individually with the MYPT1 peptide (residues 924–1030) containing a putative coiled coil domain (CC) and the leucine repeat region (LR), designated as CCLR.
Fig 3 All MRIP peptides bind to the C-terminal region of MYPT1, CCLR (residues 924–1030). Concentration-normalized time derivative g(s*) graphs of the MRIP peptides by themselves and in equimolar mixtures: Lines, CCLR (30 μM); +, individual MRIP peptides by themselves (MRIP^545-878, 14 μM; MRIP^724-878, 50 μM; MRIP^724-837, 67 μM); black filled-in circles, original equimolar mixtures (MRIP^545-878, 14 μM each; MRIP^724-878, 30 μM each; MRIP^724-837, 67 μM each); open circles, 3-fold dilutions; gray filled-in circles, 9-fold dilutions.
as §3, with “For the mutagenesis study of LR, the wild-type and mutant LR peptides were synthesized, purified by reverse-phase HPLC, and lyophilized to dryness at the peptide core in Boston Biomedical Research Institute.” left out

LR = assay: SPR, MRIP^724-878 as analyte over immobilized LR; format: binding; conditions: Biacore 3000, 25°C, analyte MRIP^724-878 (dimeric) 85.6–0.7 μM, LR immobilized (244.8 RU), nebulin-derived peptide reference, 50 mM potassium phosphate pH 7.4, 100 mM KCl, steady-state affinity, mean and standard deviation, 6 experiments
Description: as §1
This could be explained by the fact that free, solution-based MRIP^724-878 might have preserved homodimers better than the amine coupled. Consequently, we speculated that the MRIP^724-878 dimer might have higher MYPT1-binding affinity than its monomer.
as §2

[4] = AUC of MYPT1 peptides alone (concentration dependence, self-association); format: physicochemical; conditions: CC alone, 107 μM and 3-, 9-fold dilutions, MRIP^724-878 alone, 50 μM and 3-, pH 7.4, 20°C
Text: To determine the minimal MRIP-binding region of MYPT1, AUC was employed to examine interactions between sub-domains of CCLR, CC (residues 924–990) and LR (residues 991–1030) with MRIP^724-878 (Fig 4A). CC is the putative coiled coil domain and LR contains 16 upstream amino acid residues (residues 991–1006) in addition to the leucine repeat (residues 1007–1028). MRIP^724-878 was chosen because of its good fit to a single component, single-species model. […] Global fitting of the mixture to a two-component model produced a good fit and the RMSD of the fit was 0.010 (Fig 4B; Fitting of CC).
Fig 4 LR contains sufficient residues for the MYPT1/MRIP interaction. […] CC; Concentration-normalized time derivative g(s*) plots of CC, MRIP^724-878, and equimolar mixtures of the two peptides: Black filled-in circles, an original CC alone (107 μM); dark gray filled-in circles, a 3-fold dilution of CC alone; light gray filled-in circles, a 9-fold dilution of CC alone; black filled-in triangles, an original MRIP^724-878 alone (50 μM); dark gray filled-in triangles, a 3-fold dilution of MRIP^724-878 alone; light gray filled-in triangles, a 9-fold dilution of MRIP^724-878 alone; a black line, an original equimolar mixture of MRIP^724-878/CC (50 μM each): a dark gray line, a 3-fold dilution of the mixture; a light gray line, a 9-fold dilution of the mixture. […]

Row | Molecule | complex formation with immobilized MRIP^724-878 (MRIP^724-878) | self-association [1] | Kd [2] [µM] | molar mass ([3]; AUC sedimentation velocity, SedAnal global fit to single component, single-species ideal model, 4.7–42.3 μM, 50 mM potassium phosphate pH 7.4, 100 mM KCl, 1 mM DTT, 20°C, CL 0.95) [kDa] | oligomeric state in solution ([3]; AUC sedimentation velocity, pH 7.4, 100 mM KCl, 20°C) | sedimentation coefficient ([3]; AUC sedimentation velocity, single component, single-species ideal model, 4.7–42.3 μM, pH 7.4, 100 mM KCl, 20°C, CL 0.95) [S] | concentration dependence of g(s*) curves ([3]; AUC, MRIP^545-878 1.5–13.6 μM, MRIP^724-878 4.7–42.3 μM, MRIP^724-837 7.5–67.1 μM, pH 7.4, 20°C) | binding to CCLR (shift in g(s*) curves) (CCLR) | Kd (LR) [µM] | concentration dependence of g(s*) curves [4]
1 | B1 | formed complexes | reversible self-association | 14 |  |  |  |  |  |  | 
2 | B2 |  |  |  | 38.2±0.3 | forms a tight dimer in solution | 2.007±0.002 | no-concentration dependence and the presence of one species in solution | bind to CCLR | 40 ± 19 | superimposable, indicating concentration-independence
